Laboratory results reported in US12545899B2, “Luciferase enzymes for use with thermostable luciferins in bioluminescent assays” (Promega Corporation, priority 2018, dated 2026).

B1: C9715F9: SEQ ID NO: 95; H244W+T344A+1396K+S193A+N228D+L305F+S306P+I109V+C38R+A316W+T342S+V348I+K205N (protein)
chain: MADKNILYGPEPFYPLEDGTAGEQMFDALSRYAAIPGRIALTNAHTKENVLYEEFLKLSCRLAESFKKYGLKQNDTIAVCSENSLQFFLPVIASLYLGIIVAPVNDKYVERELIHSLGIVKPRIVFCSKNTFQKVLNVKSKLKSIETIIILDLNEDLGGYQCLNNFISQNSDSNLDVKKFKPYSFNRDDQVAAIMFSSGTTGLPKGVMLTHKNIVARFSIAKDPTFGDAINPTSAILTVIPFHWGFGMMTTLGYFTCGFRVVLMHTFEEKLFLQSLQDYKVESTLLVPTLMAFLAKSALVEKYDFPHLKEIASGGWPLSKEIGEMVKKRFKLNFVRQGYGLSEATSAILITPKGDAKPGSTGKIVPLHAVKVVDPTTGKILGPNEPGELYFKGPMKMKGYYNNEEATKAIIDNDGWLRSGDIAYYDNDGHFYIVDRLKSLIKYKGYQVAPAEIEGILLQHPYIVDAGVTGIPDEAAGELPAAGVVVQTGKYLNEQIVQDYVASQVSTAKWLRGGVKFLDEIPKGSTGKIDRKVLRQMLEKHTNGHHHHHHHH
B2: C9673G4: SEQ ID NO: 96; H244W+T344A+I396K+S193A+N228D+L305F+S306P+I109V+C38R+F55I+A316W+T342S+V348I+I396I (protein)
chain: MADKNILYGPEPFYPLEDGTAGEQMFDALSRYAAIPGRIALTNAHTKENVLYEEILKLSCRLAESFKKYGLKQNDTIAVCSENSLQFFLPVIASLYLGIIVAPVNDKYVERELIHSLGIVKPRIVFCSKNTFQKVLNVKSKLKSIETIIILDLNEDLGGYQCLNNFISQNSDSNLDVKKFKPYSFNRDDQVAAIMFSSGTTGLPKGVMLTHKNIVARFSIAKDPTFGDAINPTSAILTVIPFHWGFGMMTTLGYFTCGFRVVLMHTFEEKLFLQSLQDYKVESTLLVPTLMAFLAKSALVEKYDFPHLKEIASGGWPLSKEIGEMVKKRFKLNFVRQGYGLSETTSAILITPKGDAKPGSTGKIVPLHAVKVVDPTTGKILGPNEPGELYFKGPMIMKGYYNNEEATKAIIDNDGWLRSGDIAYYDNDGHFYIVDRLKSLIKYKGYQVAPAEIEGILLQHPYIVDAGVTGIPDEAAGELPAAGVVVQTGKYLNEQIVQDYVASQVSTAKWLRGGVKFLDEIPKGSTGKIDRKVLRQMLEKHTNGHHHHHHHH
B3: C2157D2: SEQ ID NO: 74; H244W+T344A+I396K+S193A+N228D+L305F+S306P+I109V+K107N+T289S (protein)
chain: MADKNILYGPEPFYPLEDGTAGEQMFDALSRYAAIPGCIALTNAHTKENVLYEEFLKLSCRLAESFKKYGLKQNDTIAVCSENSLQFFLPVIASLYLGIIVAPVNDKYIERELIHSLGIVKPRIVFCSKNTFQKVLNVKSKLKSIETIIILDLNEDLGGYQCLNNFISQNSDSNLDVKKFKPYSFNRDDQVASIMFSSGTTGLPKGVMLTHKNIVARFSIAKDPTFGNAINPTSAILTVIPFHHGFGMMTTLGYFTCGFRVVLMHTFEEKLFLQSLQDYKVESTLLVPTLMAFLAKSALVEKYDLSHLKEIASGGAPLSKEIGEMVKKRFKLNFVRQGYGLTETTSAVLITPKGDAKPGSTGKIVPLHAVKVVDPTTGKILGPNEPGELYFKGPMKMKGYYNNEEATKAIIDNDGWLRSGDIAYYDNDGHFYIVDRLKSLIKYKGYQVAPAEIEGILLQHPYIVDAGVTGIPDEAAGELPAAGVVVQTGKYLNEQIVQDYVASQVSTAKWLRGGVKFLDEIPKGSTGKIDRKVLRQMLEKHTNGHHHHHHHH
B4: C8523E12: SEQ ID NO: 94; H244W+T344A+I396K+S193A+N228D+L305F+S306P+I109V+C38R+F55I+A316W+T342S+V348I (protein)
chain: MADKNILYGPEPFYPLEDGTAGEQMFDALSRYAAIPGCIALTNAHTKENVLYEEFLKLSCRLAESFKKYGLKQNDTIAVCSENSLQFFLPVIASLYLGIIVAPVNDKYVERELIHSLGIVQPRIVFCSKNTFQKVLNVKSKLKSIETIIILDLNEDLGGYQCLNNFISQNSDSNLDVKKFKPYSFNRDDQVAAIMFSSGTTGLPKGVMLTHKNIVARFSIAKDPTFGDAINPTSAILTVIPFHWGFGMMTTLGYFTCGFRAVLMHTFEEKLFLQSLQDYKVESTLLIPTLMAFLAKSALVEKYDFPHLKEIASGGAPLSKEIGEMVKKRFKLNFVRQGYGLTEATSAVLITPKGDAKPGSTGKIVPLHAVKVVDPTTGKILGPNEPGELYFKGPMKMKGYYNNEEATKAIIDNDGWLRSGDIAYYDNDGHFYIVDRLKSLIKYKGYQVAPAEIEGILLQHPYIVDAGVTGIPDEAAGELPAAGVVVQTGKYLNEQIVQDYVASQVSTAKWLRGGVKFLDEIPKGSTGKIDRKVLRQMLEKHTNGHHHHHHHH

Key:
[1] = Brightness of additional luciferase enzyme variants with CS0333; assay type: biochemical; details: for luminescence CS0333 BG / luminescence CS0333 DR / Fold improvement over ATG3707, CS0333 BG / Fold improvement over ATG3707, CS0333 DR: Table 7B
Experimental: (§1) Additional luciferase enzyme variants were generated and evaluated for their stability and activity. To evaluate the additional luciferase enzyme variants, 0.005 mg/ml luciferase enzyme variant was mixed with 1 mM ATP+1 mM substrate in either Bright-Glo™ (BG) or Detection Reagent (DR) buffers. […] (Table 7A is colored according to their relative luminescence values within each column across a red to green color spectrum with the lowest values colored red and the highest values colored green.)

[2] = Brightness of additional luciferase enzyme variants with CS0280; assay type: biochemical; details: for luminescence CS0280 BG / luminescence CS0280 DR / Fold improvement over ATG3707, CS0280 BG / Fold improvement over ATG3707, CS0280 DR: Table 7B
Experimental: as §1

[3] = Differential scanning fluorimetry (DSF) analysis; assay type: physicochemical; parameters: key to DSF Tm: melting temperature in °C (heated 30-95 °C at 1 °C/min); details: for DSF Tm (° C.): Table 7B
Experimental: To conduct the experiment, Sypro Orange (5000×) was diluted in water to 3× and combined with enzymes stored in 50 mM HEPES pH 7.5, 100 mM NaCl, 2 mM EDTA to a final concentration of 5×. Fluorescence was read at 60 second intervals as the reactions were heated at 1° C. per minute from 30-95° C. The change in fluorescence at each minute was calculated and plotted for each temperature in the range.
The luciferase enzyme variants generated were also evaluated using DSF analysis as shown in the representative results provided in Tables 7A and 7B above. To conduct the experiments, Sypro Orange (5000×) was diluted in water to 3× and combined with enzymes stored in 20 mM HEPES pH 7.5, 200 mM NaCl, 1 mM EDTA to a final concentration of 5×. Fluorescence was read at 60 second intervals as the reactions were heated at 1° C. per minute from 30-95° C. The change in fluorescence at each minute was calculated and plotted for each temperature in the range.

[4] = Kinetic analysis of ATG-3707 variants with CS0333; assay type: biochemical
Experimental: Additionally, Table 5 (below) includes kinetic analysis of the ATG-3707 variants identified above. Reagent compositions included CS0333 serially diluted 10-fold from 1 mM to 10 fM in reaction buffer with 2 mM ATP. […] Reactions were incubated at 25° C. for 3 min, and luminescence was read and then normalized to ATG-3707 activity tested in parallel. […] Since C2157D2 was selected for improved brightness in CellTiterGlo® buffer over ATG-3707, it still had beneficial properties.

[5] = 1 mM CS0333, Detection Reagent buffer
[6] = 1 mM CS0280, Detection Reagent buffer

| Molecule | luminescence CS0333 BG ([1]; 1 mM CS0333, Bright-Glo buffer) | luminescence CS0333 DR [1, 5] | Fold improvement over ATG3707, CS0333 BG ([1]; Bright-Glo buffer) | Fold improvement over ATG3707, CS0333 DR ([1]; Detection Reagent buffer) | luminescence CS0280 BG ([2]; 1 mM CS0280, Bright-Glo buffer) | luminescence CS0280 DR [2, 6] | Fold improvement over ATG3707, CS0280 BG ([2]; Bright-Glo buffer) | Fold improvement over ATG3707, CS0280 DR ([2]; Detection Reagent buffer) | DSF Tm (° C.) [3] [°C] | Km ([4]; BrightGlo) [µM] | Vmax (RLU) ([4]; BrightGlo) | Km ([4]; Detection Reagent) [µM] | Vmax (RLU) ([4]; Detection Reagent) | Fold-improvement over ATG3707, CS0333 BG ([1]; Table 7A, 1 mM CS0333, Bright-Glo buffer) | Fold-improvement over ATG3707, CS0333 DR ([1]; Table 7A, 1 mM CS0333, Detection Reagent buffer) | Fold-improvement over ATG3707, CS0280 BG ([2]; Table 7A, 1 mM CS0280, Bright-Glo buffer) | Fold-improvement over ATG3707, CS0280 DR ([2]; Table 7A, 1 mM CS0280, Detection Reagent buffer) | DSF Tm ([3]; Table 7A) |
| --- | --- | --- | --- | --- | --- | --- | --- | --- | --- | --- | --- | --- | --- | --- | --- | --- | --- | --- |
| B1 | 18,891,000 | 14,484,700 | 3.55 | 3.40 | 2,040,340 | 245,081 | 2.57 | 8.38 | 68 |  |  |  |  |  |  |  |  |  |
| B2 | 18,508,700 | 12,268,900 | 3.48 | 2.88 | 1,298,420 | 104,671 | 1.64 | 3.58 | 71 |  |  |  |  |  |  |  |  |  |
| B3 |  |  |  |  |  |  |  |  |  | 6.31 | 3,053,170 RLU | 97.1 | 3,677,773 RLU | 1.16 | 1.52 | 2.36 | 3.08 | 63 |
| B4 | 20,331,700 | 15,418,100 | 3.82 | 3.62 | 1,996,020 | 213,031 | 2.52 | 7.29 | 67 |  |  |  |  |  |  |  |  |  |
